Kd data for seven molecules are collected here from patent US20140248295A1 (ROCKEFELLER UNIVERSITY, published 2014).

To fix the notation:
B1: Ibalizumab light chain mutant LM30E (antibody, human IgG1, kappa, V domains shown)
VH: QVQLQQSGPEVVKPGASVKMSCKASGYTFTSYVIHWVRQKPGQGLDWIGYINPYNDGTDYDEKFKGKATLTSDTSTSTAYMELSSLRSEDTAVYYCAREKDNYATGAWFAYWGQGTLVTVSS
VL: DIVMTQSPDSLAVSLGERVTMNCKSSQSLLYSTNNATYLAWYQQKPGQSPKLLIYWASTRESGVPDRFSGSGSGTDFTLTISSVQAEDVAVYYCQQYYSYRTFGGGTKLEIKR
B2: Ibalizumab light chain mutant LM76 (antibody, human IgG1, kappa, V domains shown)
VH: QVQLQQSGPEVVKPGASVKMSCKASGYTFTSYVIHWVRQKPGQGLDWIGYINPYNDGTDYDEKFKGKATLTSDTSTSTAYMELSSLRSEDTAVYYCAREKDNYATGAWFAYWGQGTLVTVSS
VL: DIVMTQSPDSLAVSLGERVTMNCKSSQSLLYSTNQKNYLAWYQQKPGQSPKLLIYWASTRESGVPDRFSGSGSGTDFTLTINATQAEDVAVYYCQQYYSYRTFGGGTKLEIKR
B3: Ibalizumab light chain mutant LM52 (antibody, human IgG1, kappa, V domains shown)
VH: QVQLQQSGPEVVKPGASVKMSCKASGYTFTSYVIHWVRQKPGQGLDWIGYINPYNDGTDYDEKFKGKATLTSDTSTSTAYMELSSLRSEDTAVYYCAREKDNYATGAWFAYWGQGTLVTVSS
VL: DIVMTQSPDSLAVSLGERVTMNCKSSQSLLYSTNQKNYLAWYQQKPGQSPKLLIYWANSTESGVPDRFSGSGSGTDFTLTISSVQAEDVAVYYCQQYYSYRTFGGGTKLEIKR
notes: also called iMab-LM52; Ibalizumab LM52
B4: Ibalizumab light chain mutant LM60 (antibody, human IgG1, kappa, V domains shown)
VH: QVQLQQSGPEVVKPGASVKMSCKASGYTFTSYVIHWVRQKPGQGLDWIGYINPYNDGTDYDEKFKGKATLTSDTSTSTAYMELSSLRSEDTAVYYCAREKDNYATGAWFAYWGQGTLVTVSS
VL: DIVMTQSPDSLAVSLGERVTMNCKSSQSLLYSTNQKNYLAWYQQKPGQSPKLLIYWASTRESGVPNATSGSGSGTDFTLTISSVQAEDVAVYYCQQYYSYRTFGGGTKLEIKR
B5: Ibalizumab light chain mutant LM67 (antibody, human IgG1, kappa, V domains shown)
VH: QVQLQQSGPEVVKPGASVKMSCKASGYTFTSYVIHWVRQKPGQGLDWIGYINPYNDGTDYDEKFKGKATLTSDTSTSTAYMELSSLRSEDTAVYYCAREKDNYATGAWFAYWGQGTLVTVSS
VL: DIVMTQSPDSLAVSLGERVTMNCKSSQSLLYSTNQKNYLAWYQQKPGQSPKLLIYWASTRESGVPDRFSGSGNATDFTLTISSVQAEDVAVYYCQQYYSYRTFGGGTKLEIKR
B6: Ibalizumab light chain mutant LM53 (antibody, human IgG1, kappa, V domains shown)
VH: QVQLQQSGPEVVKPGASVKMSCKASGYTFTSYVIHWVRQKPGQGLDWIGYINPYNDGTDYDEKFKGKATLTSDTSTSTAYMELSSLRSEDTAVYYCAREKDNYATGAWFAYWGQGTLVTVSS
VL: DIVMTQSPDSLAVSLGERVTMNCKSSQSLLYSTNQKNYLAWYQQKPGQSPKLLIYWASNATSGVPDRFSGSGSGTDFTLTISSVQAEDVAVYYCQQYYSYRTFGGGTKLEIKR
B7: Ibalizumab light chain mutant LM65 (antibody, human IgG1, kappa, V domains shown)
VH: QVQLQQSGPEVVKPGASVKMSCKASGYTFTSYVIHWVRQKPGQGLDWIGYINPYNDGTDYDEKFKGKATLTSDTSTSTAYMELSSLRSEDTAVYYCAREKDNYATGAWFAYWGQGTLVTVSS
VL: DIVMTQSPDSLAVSLGERVTMNCKSSQSLLYSTNQKNYLAWYQQKPGQSPKLLIYWASTRESGVPDRFSGNATGTDFTLTISSVQAEDVAVYYCQQYYSYRTFGGGTKLEIKR

Usually Kd stands for a measure of binding affinity in units of concentration.

For this assay, the target named is T1, Recombinant sCD4 comprising the full-length extracellular domain of human CD4 (human, UniProt P01730 26-396).
T1 construct: also called human sCD4 protein; CD4 protein
The assay can be described thus: SPR (Biacore), antibody on CM5 chip by amine coupling, sCD4 as analyte, 25 C. Here is the method: Binding affinity analyses were performed with a T3000 instrument (GE Healthcare, Piscataway, N.J.). […] Briefly, carboxyl groups on the sensor chip surface were activated by injection of a solution containing 0.2 M EDC and 0.05 M NHS. Next, sCD4 protein in 10 mM NaOAc buffer (pH5) was flowed over the chip surface until the desired level of response units was achieved. After unreacted protein was washed out, excess active ester groups on the sensor surface were capped by the injection of 1 M ethanolamine, pH 8.0. Binding experiments were performed at 25° C. in HBS-EP buffer (GE Healthcare). Binding kinetics were measured by passing various concentrations of human sCD4 protein over the chip surface. For kinetics data analysis, the kinetic parameters ([…], association rate constant; koff, dissociation rate constant; KD, equilibrium dissociation constant) were determined by collectively fitting the overlaid sensograms using the BIAevaluation 4.1 software.
CD4 binding affinities of these mutant antibodies were examined using surface plasmon resonance.
On the technique in general: In SPR one partner is held on a chip, and binding of the other changes the refractive index at the surface.
As to B1, the dissociation constant Kd was found to be 1.3 nM.

B2: the Kd turned out to be 0.28 nM.

As to B3, the Kd was found to be 0.35 nM.

Take B4: the Kd stood at 0.19 nM.

For the molecule B5, the Kd worked out at 0.8 nM.

As to B6, the Kd worked out at 0.53 nM.

For B7, the Kd came to 1.5 nM.
